Laboratory results published in the Immune Epitope Database (IEDB).

Columns and labels:
Assay in all cases: IEDB peptide-MHC binding, purified MHC/competitive/radioactivity; filed as Kd, often an IC50 or EC50 that approximates it; ≥ and ≤ were set here for values at or beyond the usual limits of such assays
[1] = target: HLA-A*11:01
[2] = target: HLA-A*03:01
[3] = target: HLA-A*33:01
[4] = target: HLA-A*68:01
[5] = target: HLA-A*31:01
[6] = source organism: SARS coronavirus Tor2
[7] = source organism: Vaccinia virus WR
[8] = source organism: Dengue virus 2 Jamaica/1409/1983
[9] = source organism: Dengue virus 1 Brazil/97-11/1997
[10] = source organism: Dengue virus 3 Martinique/1243/1999
[11] = source organism: Mammarenavirus machupoense

Sequence: AAAYFVGYLK
- Kd [1, 6]: 0.439 nM
- Kd [2, 6]: 9.39 nM
- Kd [3, 6]: 5610 nM
- Kd [4, 6]: 1.08 nM
- Kd [5, 6]: 282 nM

Sequence: AAKYVEHDPR
- Kd [1, 7]: ≥ 39000 nM
- Kd [2, 7]: ≥ 31000 nM
- Kd [3, 7]: 1480 nM
- Kd [4, 7]: 251 nM
- Kd [5, 7]: 171 nM

Sequence: AARGYISTR
- Kd [3, 8]: 315 nM
- Kd [5, 8]: 11.1 nM

Sequence: AGLAFSLMK
- Kd [1, 9]: 11.2 nM

Sequence: AIDAYPLTK
- Kd [1, 6]: 11.6 nM
- Kd [3, 6]: ≥ 44600 nM
- Kd [4, 6]: 6970 nM
- Kd [5, 6]: 8890 nM

Sequence: AIGTSITQK
- Kd [1, 9]: 60.9 nM
- Kd [2, 9]: 9.33 nM

Sequence: ALTALNDMGK
- Kd [1, 8]: 1370 nM
- Kd [2, 8]: 1290 nM

Sequence: AQGLVASIK
- Kd [1, 6]: 209 nM
- Kd [2, 6]: 654 nM
- Kd [3, 6]: ≥ 31600 nM
- Kd [4, 6]: ≥ 32600 nM
- Kd [5, 6]: 9890 nM

Sequence: ATKSEHTGR
- Kd [5, 10]: 1.85 nM

Sequence: ATMLDVDLR
- Kd ([1]; source organism: Dengue virus 1 Singapore/S275/1990): 41.5 nM

Sequence: ATRLENIMWK
- Kd [1, 9]: 6.34 nM
- Kd [2, 9]: 42.3 nM

Sequence: ATSRTLSYYK
- Kd [1, 6]: 3.16 nM
- Kd [2, 6]: 3.32 nM
- Kd [3, 6]: 6230 nM
- Kd [4, 6]: 15.3 nM
- Kd [5, 6]: 14.9 nM

Sequence: AVLDMCAALK
- Kd [1, 6]: 6.06 nM
- Kd [2, 6]: 12.9 nM
- Kd [3, 6]: 756 nM
- Kd [4, 6]: 117 nM
- Kd [5, 6]: 80.4 nM

Sequence: CQFDHVNTLH
- Kd [1, 11]: 8740 nM
- Kd [2, 11]: 18400 nM
- Kd [4, 11]: 9280 nM
- Kd [5, 11]: 1930 nM

Sequence: DAKNDDWKK
- Kd [1, 7]: 3100 nM
- Kd [2, 7]: 8230 nM
- Kd [3, 7]: 2830 nM
- Kd [4, 7]: 104 nM
- Kd [5, 7]: ≥ 36700 nM

Sequence: DFDNLIGVR
- Kd [1, 7]: ≥ 77900 nM
- Kd [2, 7]: ≥ 78000 nM
- Kd [3, 7]: 87.1 nM
- Kd [4, 7]: 10700 nM
- Kd [5, 7]: 8030 nM

Sequence: DSFLRKIGDK
- Kd [1, 7]: 11700 nM
- Kd [2, 7]: ≥ 59100 nM
- Kd [3, 7]: 1970 nM
- Kd [4, 7]: 6270 nM
- Kd [5, 7]: 3560 nM

Sequence: DTSNNIAEY
- Kd [1, 7]: ≥ 5000 nM
- Kd [2, 7]: ≥ 78000 nM
- Kd [3, 7]: 7610 nM
- Kd [4, 7]: 2.74 nM
- Kd [5, 7]: ≥ 35600 nM

Sequence: DVFFIPPEK
- Kd ([4]; source organism: Dengue virus 2 16681-PDK53): 3.62 nM

Sequence: EALEYLSELK
- Kd [1, 7]: 225 nM
- Kd [2, 7]: 461 nM
- Kd [3, 7]: 5620 nM
- Kd [4, 7]: 105 nM
- Kd [5, 7]: 17900 nM

Sequence: EFGKAKGSR
- Kd [3, 10]: 125 nM

Sequence: EFKEFAAGR
- Kd [4, 8]: 594 nM

Sequence: ELYDTSPTK
- Kd [1, 7]: 90.2 nM
- Kd [2, 7]: 10.5 nM
- Kd [3, 7]: ≥ 43500 nM
- Kd [4, 7]: 4.11 nM
- Kd [5, 7]: ≥ 77900 nM

Sequence: EQQQSFMPK
- Kd [1, 7]: 11.3 nM
- Kd [2, 7]: 2120 nM
- Kd [3, 7]: 5470 nM
- Kd [4, 7]: 131 nM
- Kd [5, 7]: 5260 nM
